This assay concerns the target PD-L1 ECD (Homo sapiens, UniProt Q9NZQ7). Nature of the assay: magneto-nanosensor.

Sequence of PD-L1 ECD (Q9NZQ7 19-238): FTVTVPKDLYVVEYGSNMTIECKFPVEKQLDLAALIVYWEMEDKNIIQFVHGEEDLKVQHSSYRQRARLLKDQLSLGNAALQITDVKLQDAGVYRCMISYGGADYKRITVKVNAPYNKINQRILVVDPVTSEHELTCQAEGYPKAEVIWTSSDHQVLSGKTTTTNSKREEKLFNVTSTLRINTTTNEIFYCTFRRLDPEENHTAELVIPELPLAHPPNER

B1: PD-L2 ECD (protein)
chain: LFTVTVPKELYIIEHGSNVTLECNFDTGSHVNLGAITASLQKVENDTSPHRERATLLEEQLPLGKASFHIPQVQVRDEGQYQCIIIYGVAWDYKYLTLKVKASYRKINTHILKVPETDEVELTCQATGYPLAEVSWPNVSVPANTSHSRTPEGLYQVTSVLRLKPPPGRNFSCVFWNTHVRELTLASIDLQSQMEPRTHPT
B1 displayed a Kd of 9.1 µM.

(Values after PMC4961847 (2016).)
